Measured values reported in patent publication US20240189443A1, “PD-L1 AND TLR7 DOUBLE-TARGETING NANOBODY COUPLING DRUG AND USE THEREOF IN ANTI-TUMOR” (SHANGHAI INSTITUTE OF MATERIA MEDICA, CHINESE ACADEMY OF …, priority 2021, published 2024).

Tests used:
HEK293T/mPD-L1 = target: T1, HEK293T/mPD-L1 (Mus musculus, UniProt Q9EP73); test: Flow cytometry PD-L1 binding activity assay of the nanobody coupling drug; conditions: 17 concentrations 100-0.0008 μg/mL
T1 construct: expressed in transfected cells; host or cells: HEK293T

[1] = target: T2, PD-1/PD-L1 (HEK293T/mPD-L1) (Mus musculus, UniProt Q9EP73); test: Flow cytometry PD-1/PD-L1 blocking activity assay of the nanobody coupling drug; format: binding; conditions: mouse PD-1-biotin 20 μg/mL
T2 construct: expressed in transfected cells; host or cells: HEK293T

induced CT26 = test: Induced (high expression) PD-L1 CT26 subcutaneous tumor-bearing model; format: in vivo, BALB/c mouse; conditions: 10 mg/kg intraperitoneal, 4 doses
From the text: In FIG. 8A, it has been shown that the non-induced CT26 cell surface PD-L1 expression is approximately 17.3%, and the expression level of PD-L1 is increased to 98.1% only after IFN-γ induction. Therefore, we researched and compared the effects of the coupling compound in the non-induced and induced CT26 mouse tumor model, respectively.
In the two models, CT26 tumor cells were subcutaneously inoculated into female BALB/c mice before and after induction respectively to construct tumor-bearing mouse models, and the inoculation amount was 1×10^6 cells/one; the mice are randomly divided into two groupswith 6 mice of each group, that is, a blank control group mFc (the concentration is 10 mg/kg), and a coupling compound Nb16-SZU-101 group (the concentration was 10 mg/kg); the administration dosage was 200 μl, and the administration modes were both intraperitoneal administration; administration was performed on Day 2, Day 5, Day 8 and Day 11 respectively, and administration was carried out for 4 times; the size of the tumor was measured for 2-3 times every week, and a tumor growth curve was drawn; and anatomical weighing and photographing were performed on the mouse at Day 12.

B16-F10 cells = test: Uninduced B16-F10 subcutaneous tumor-bearing model with low expression PD-L1; format: in vivo, C57BL/6 mouse; conditions: 10 mg/kg intraperitoneal
Procedure: The 6 to 8-week-old C57BL 6 mice were randomly divided into two groups, which were respectively as an mFc group and a nanobody-coupled drug NB 16-SZU-101 group. 1×10^6 B16-F10 cells (FIG. 9A) of 1×10^6 non-induced low-expression PD-L1 were planted under the underarm skin of mice (FIG. 9A). Administration was performed by using mFc and nanobody coupled drug Nb16-SZU-101, respectively; the administration dosage of the control drug and Nb16-SZU-101 was 10 mg/kg, and the volume is 200 μL; each group of drug delivery manners was intraperitoneal injection. Each group was administered at 2th, 5th, 8th and 11th days after tumor implantation, respectively, and the drug was administered for […]. On Day 12 mice would be euthanized.

[2] = system: uninduced CT26 tumor cell; test: Late CT26 subcutaneous tumor-bearing model (tumor volume>200 mm^3); format: in vivo, BALB/c mouse
Procedure: The uninduced CT26 tumor cell subcutaneous was inoculated into a female BALB/C mouse to construct a tumor-bearing mouse model in the two models, and the inoculation amount was 1×10^6 cells/; the mice were divided into two groups, and each group was 8 mice, that is, a blank control group mFc (the concentration was 10 mg/kg), and a coupling compound Nb16-SZU-101 group (the concentration was 10 mg/kg); and the administration dosage was 200 μL, and the administration manner was an abdominal administration. In the early model (the tumor volume was<50 mm^3), the drug was administered in Day 4, Day 7, Day 10, Day 13, Day 16, and the drug was administered for 5 times; in the late model (the tumor volume was greater than 200 mm^3), the drug was administered in Day 9, Day 12, Day 15, Day 17, and the drug was administered for 4 times. The tumor size was measured 2-3 times a week, and a tumor growth curve was drawn.

[3] = system: tumor immune microenvironment (CT26 subcutaneous tumors); test: Tumor immunotyping analysis by flow cytometry after conjugate administration; format: in vivo, BALB/c mouse; conditions: compared to mFc group
Procedure: At a mouse anatomical endpoint of example 8.1, subcutaneous tumors were taken, 150 mg of tumor tissue was taken and cut into meat paste, and the meat paste was oscillated and digested at 180 rpm for 1.5 h at 37° C. in hyaluronidase and collagenase IV, and processed into a single cell suspension. The pretreated cell suspension was divided into two parts, one part was used for immunotyping analysis of macrophages and dendritic cells, and one part was used for immune typing analysis of T cells and NK cells.
The suspension treatment of macrophages and dendritic cell samples: the cells were treated with 2-4 mL sterile red blood cell lysis solution for 8 min and terminated with PBS buffer solution to remove red blood cells and fragments in the sample suspension; the cell sample was cleaned for use.
T cell and NK cell sample suspension treatment: the cells were centrifuged with lymphocyte separation liquid to obtain a lymphocyte separation layer, that is, the lymphocyte separation layer was a tumor lymphocyte suspension, and wascleaned for use.
The macrophages and dendritic cell samples and T cells and NK cell samples were sealed at 4° C. with an Fc receptor confining liquid for 1 hour, and non-specific staining caused by the Fc receptor was removed; cell surface protein staining is performed, specifically: M1 macrophages (FITC Rat Anti-Mouse CD45, PE-Cyanine7 Rat Anti-Mouse F4/80 and APC Rat anti-Mouse CD86), M2 macrophages (FITC RATw Anti-Mouse CD45 and PE-Cynine 7 RAT Anti-Mouse F4/80), dendritic cells (PE-Cy7 Anti-Mouse CD11c, BB515 Rat Anti-Mouse I-A/I-E, PE Hamster Anti-Mouse CD80, and APC Rat anti-Mouse CD86), CD4+T cells and CD8+T cells (FITC Hamster Anti-Mouse CD3e, PerCP-Cy™ 5.5 Rat Anti-Mouse CD4 and APC Rat Anti-Mouse CD8a), Treg cells (FITC Hamster Anti-Mouse CD3e, PerCP-CYy™ 5.5 Rat Anti-Mouse CD4 and PE Rat Anti-Mouse CD25), NK cells (CD3-FITC, CD49b-APC, CD69-PE), followed by dyeing on ice for 20 min.; then intracellular protein staining is performed, and after the cell is subjected to a fixed membrane rupture treatment, the cell is subjected to membrane rupture dyeing, specifically: M2 macrophages (MS CD206 Alexa 647 and ANTI-MOUSE LAP PE), functional T cells(ANTI-MOUSE GRANZYME B (NGZB) PE) containing granzyme, functional T cells (PE Rat Anti-Mouse IFN-γ) containing IFN-γ, Treg cells (ANTI-MOUSE/RAT FOXP3 APC), and then stained for 20 min on ice; after cleaning, re-suspending the sample cell sap, and performing on-machine detection on the flow cytometer.

T1 sequence (Q9EP73 19-290): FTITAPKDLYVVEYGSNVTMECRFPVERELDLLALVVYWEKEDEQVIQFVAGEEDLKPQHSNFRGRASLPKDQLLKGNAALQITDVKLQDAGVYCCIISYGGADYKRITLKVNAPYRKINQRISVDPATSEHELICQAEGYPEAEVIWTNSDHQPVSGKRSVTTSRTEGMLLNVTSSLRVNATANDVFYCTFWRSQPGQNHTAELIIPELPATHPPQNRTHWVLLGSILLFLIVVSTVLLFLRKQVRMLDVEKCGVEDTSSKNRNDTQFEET
T2 sequence (Q9EP73 19-290): as above

B1: Nb16-SZU-101: PD-L1 and TLR7 dual-targeting nanobody coupling drug, Nb16 coupled with SZU-101-NHS active ester (conjugate)
chain: QVQLQESGGGSVQAGGSLRLSCAASGYTDRNYWMGWFRQAPGKEREGVAALYTRTGSTYYADSVKGRFTISHDNAKNTLYLQMNSLKPEDTAVYYCAADSNAYGLAPLHHYWGQGTQVTVSS
modifications: left off: a dimerising Fc or GST
With B1 the “PD-L1 binding activity of conjugate compared with Nb16” value (HEK293T/mPD-L1) was “does not change the binding activity”, the “PD-1/PD-L1 blocking activity of conjugate compared with Nb16” value [1] was “does not change the blocking activity” and the “Tumor growth inhibition rate” value (induced CT26) was 83.6%. For the same molecule, the Tumor inhibition rate (B16-F10 cells) was “about 68.2%”, the “Lifetime (survival)” value [2] was “significantly prolong the lifetime” and the “Tumor growth inhibition rate” value ([2]; 10 mg/kg abdominal administration, 4 doses) was 78.9%. For the same molecule, the “Tumor-bearing mice with tumor regression” value ([2]; 10 mg/kg, 4 doses) was 12.5%, the “Expression of granzyme B and IFN-γ in tumor-infiltrating cytotoxic cells” value [3] was “promote the expression” and the “Function of tumor-infiltrating cytotoxic cells (CD8+T cells and NK cells)” value [3] was “significantly increases”. The “Infiltration of IFN-γ+CD4+T cells” value [3] was “significantly increased”, the “Infiltration of TGF-β+macrophages” value [3] was “reduce the infiltration” and the “Macrophage expression of PD-L1 in tumor microenvironment” value [3] was “promotes macrophage expression of PD-L1”. The “Re-polarization of tumor-associated macrophages” value [3] was “promote the re-polarization” and the “Maturation of dendritic cells” value ([3]; tumors of example 8.1) was “promotes maturation of dendritic cells”.
